Measured values reported in the supplement of paper PMC10126150.
± gives the standard deviation of the averaged measurements.

test system: ATP; assay: switch fluorescence ratio, 500 uM ATP over buffer (Cy3 cluster intensity, sum of 5 cycles each) (fold (ratio)); higher = stronger signal-on switching upon ATP binding; sequences stand for … in TCGTCGGCAGCGTCAGATGTGTATAAGAGACAGTTTTTTTTTTTTTTTTTTTTTTTTT…TC; details: aptamer strand: ATP DNA aptamer (quencher-CACCTGGGGGAGTATTGCGGAGGAAGG + anchor), 100 nM annealed; ATP concentration: 500 uM
Outline: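 Exposure to 500 uM ATP lasted 15 min at 22 °C before imaging, and a selection-buffer image was taken beforehand, for Cy3-labelled switching-strand clusters on a modified Illumina MiSeq flow-cell annealed to 100 nM quencher-labelled ATP aptamer. Five buffer/ATP cycles were run with NaOH stripping and re-annealing between them. The fluorescence ratio per cluster is summed target-cycle over summed buffer-cycle Cy3 intensity, averaged per switch-domain sequence. Clusters outside 100-1000 RFU were excluded.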

| Sequence | switch fluorescence ratio |
| --- | --- |
| CGTGAGCTTG | 1.0004 ± 4.9e-05 |
| GGAAGGGGGC | 0.9707 ± 0.0066 |
| CAATGGAGGG | 0.992 ± 0.033 |
| TTTAGGTTGC | 0.9817 ± 0.0056 |
| TATTTAGGTG | 1.11 ± 0.018 |
| GACGACTATT | 1.13 ± 0.016 |
| ATATGGATAA | 1.01 ± 0.012 |
| GTGTGGGAGC | 1 ± 0.06 |
| AATTTTTTCA | 0.99 ± 0.018 |
| GCTTTATAGT | 0.985 ± 0.049 |
| GTAGCTGCGG | 1.02 ± 0.038 |
| GATTCGTTTT | 1 ± 0.031 |
| TCAGGGTGCC | 1.017 ± 0.0094 |
| GAGGTTTCTA | 0.993 ± 0.038 |
| GTATATCTGT | 1.01 ± 0.052 |
| TAAATACTCT | 1.16 ± 0.032 |
| CCTACTAGAT | 1.142 ± 0.007 |
| GATGTAGTTT | 0.993 ± 0.027 |
| CGTGGATAGC | 1.02 ± 0.055 |
| AGGTTTTATT | 0.948 ± 0.023 |
| AAAAGCAGCG | 1.03 ± 0.05 |
| GGGCGACTGT | 0.978 ± 0.023 |
| TCATAGGTGG | 1 ± 0.034 |
| AATTGTGTTG | 0.98 ± 0.031 |
| CGTTTGGGCA | 1.01 ± 0.017 |
| CTAGCTATGT | 1 ± 0.067 |

| Sequence | switch fluorescence ratio |
| --- | --- |
| GGGGGTAGTA | 1.01 ± 0.044 |
| CGTTTTTTTC | 1.007 ± 0.01 |
| TCGGACATGG | 1.015 ± 0.0082 |
| AGTATGGTGC | 0.991 ± 0.029 |
| CAACAGGGGT | 1.14 ± 0.23 |
| GCGACTAGGC | 1.03 ± 0.068 |
| TCACTGTTGT | 0.993 ± 0.032 |
| GAACTAGGTT | 0.9847 ± 0.0035 |
| TTTTGGTCCT | 1.07 ± 0.1 |
| TGTTTGTGCG | 0.9633 ± 0.0057 |
| ACATAATGCC | 0.933 ± 0.047 |
| GAGTCATGTG | 1.01 ± 0.037 |
| AAGAGGGCAT | 1.01 ± 0.022 |
| AATGGGGCAA | 1.058 ± 0.0077 |
| TGAGTATGGT | 1.002 ± 0.0059 |
| CTAGGGGACG | 1.03 ± 0.032 |
| TGCGACCGTT | 1.01 ± 0.033 |
| TGTTTTGAGA | 1 ± 0.023 |
| TCGTTCGGGG | 1.041 ± 0.0049 |
| GAGGGCCGGT | 1.03 ± 0.032 |
| CCAATGTATG | 0.998 ± 0.044 |
| GAAATTCGAG | 1.01 ± 0.033 |
| GTGTTAAAAT | 1.01 ± 0.018 |
| TTGGTCTGGG | 1.01 ± 0.064 |
| TATGCTGAAT | 1 ± 0.015 |
| AGACAGGGAG | 1.01 ± 0.031 |

| Sequence | switch fluorescence ratio |
| --- | --- |
| GGGGGCAGGT | 1.03 ± 0.039 |
| GAGGTTGATC | 0.983 ± 0.056 |
| TCCGAAAGGG | 1.052 ± 0.0062 |
| TGCTTTTGAT | 1 ± 0.048 |
| TGGGTCATGA | 1.03 ± 0.034 |
| TAGACATGTT | 1 ± 0.13 |
| GGATTCGTAA | 0.998 ± 0.01 |
| GCAGGTTGT | 1.009 ± 0.0021 |
| ATATGGTAGT | 1.03 ± 0.032 |
| ACAATCGGAA | 1.025 ± 0.0014 |
| GAACAAGGTG | 1.14 ± 0.22 |
| CGGATGTAGC | 1.02 ± 0.063 |
| ATGGTGCAGG | 1.06 ± 0.011 |
| GGCATGGTTT | 1.01 ± 0.014 |
| TGGGATCTGG | 0.997 ± 0.037 |
| CAGCTAGTGT | 0.984 ± 0.028 |
| TGTTATTGGT | 1.01 ± 0.015 |
| TTATATGATT | 0.997 ± 0.036 |
| TGGGAACCGT | 1.18 ± 0.32 |
| AAAAGGGGAG | 1.14 ± 0.16 |
| TTGACGGAGA | 0.993 ± 0.039 |
| AGCAATTGCT | 1.05 ± 0.023 |
| AGTAATGAGG | 0.985 ± 0.035 |
| CCGGGGTTAG | 1.38 ± 0.42 |
| TTCAGGATGT | 1 ± 0.025 |
| GCTGAGAGTC | 0.992 ± 0.034 |

| Sequence | switch fluorescence ratio |
| --- | --- |
| ATGTTGTTAC | 1.01 ± 0.025 |
| AGTCAACCGG | 1.03 ± 0.034 |
| GTGGCTGTTT | 1.02 ± 0.02 |
| AAGGGTATGC | 1 ± 0.035 |
| TAATCTGGCT | 0.993 ± 0.011 |
| ATTTTAGGGG | 0.983 ± 0.035 |
| ACTCGGGTAC | 1.79 ± 0.15 |
| TTACCCTATA | 1.07 ± 0.029 |
| ATGGTGGCAT | 1.01 ± 0.012 |
| CTGTAATATT | 1.13 ± 0.029 |
| CTGTTAGGTA | 1.007 ± 0.01 |
| GGGGCAGGCG | 1.07 ± 0.35 |
| TATGGCCAAT | 1.03 ± 0.03 |
| AACAGGAAGC | 1.01 ± 0.017 |
| GACGACGACA | 2.5 ± 0.092 |
| AGCGGGTTCG | 1 ± 0.054 |
| CGGAAAATGT | 0.962 ± 0.016 |
| GGTTTTTTCT | 1.03 ± 0.088 |
| AGGACGGGA | 1.03 ± 0.035 |
| AAACGGGCTA | 1.03 ± 0.039 |
| AAATTTACCG | 1.05 ± 0.015 |
| GATTGCATGA | 0.996 ± 0.024 |
| GGCTTCTTGA | 0.966 ± 0.017 |
| ATATGGAGAT | 0.98 ± 0.017 |
| CATAACGTTA | 1.032 ± 0.0071 |
| AACTTTGACC | 1.034 ± 0.0014 |

| Sequence | switch fluorescence ratio |
| --- | --- |
| GACCTATTTT | 1.023 ± 0.0039 |
| GATCTGTGCG | 0.972 ± 0.032 |
| CCGTAAGAAT | 1.37 ± 0.055 |
| GGTGCCGAAT | 0.998 ± 0.031 |
| ACGATTAGGG | 0.996 ± 0.08 |
| TTTGTTAACG | 0.99 ± 0.013 |
| ACATGCGGGG | 1.019 ± 0.01 |
| TGGTCGGGGG | 0.997 ± 0.025 |
| GACGGTCACT | 1.21 ± 0.013 |
| CGAACGGATG | 1.0156 ± 0.00041 |
| CCGGCGGATT | 1.08 ± 0.056 |
| GCCCGTCCTG | 1.04 ± 0.015 |
| GAGGGTAGTC | 1.004 ± 0.007 |
| TCGAATATCA | 1.007 ± 0.0097 |
| TTCTATTCGA | 1.008 ± 0.0058 |
| GTTAGGTGGC | 0.931 ± 0.021 |
| TGAATAATCT | 1.055 ± 0.004 |
| GGGGAAGATT | 0.986 ± 0.03 |
| TGACGGGAAG | 0.9862 ± 0.0012 |
| CAGTCTGGTG | 1.01 ± 0.025 |
| GAAGTTATTG | 0.9898 ± 0.0022 |
| TTAAGTGTAC | 1.03 ± 0.026 |
| AGTAGCGGTC | 1.02 ± 0.057 |
| CAGGGGGACG | 0.923 ± 0.063 |
| TGGGACAGTG | 0.968 ± 0.058 |
| GCAGGTACGC | 1.05 ± 0.033 |

| Sequence | switch fluorescence ratio |
| --- | --- |
| TTCCTGTTTC | 1.01 ± 0.023 |
| GCAGTTTGGC | 1.01 ± 0.057 |
| AATAGACTT | 0.999 ± 0.013 |
| CGTGCGTGCT | 1.01 ± 0.023 |
| AAATTTTTTT | 0.996 ± 0.054 |
| GGTTCGAGAG | 0.964 ± 0.012 |
| CAAAGTACAA | 1.17 ± 0.02 |
| ATCATGAGGT | 0.97829 ± 0.00072 |
| CTTGTTTTGT | 1.02 ± 0.015 |
| ACGGTCTGGA | 1 ± 0.041 |
| AATGGAGATG | 1 ± 0.041 |
| ATATTTTGTT | 1.03 ± 0.066 |
| AGCTTCATTC | 1.06 ± 0.057 |
| GCTTTGGGCA | 0.9992 ± 0.0067 |
| TTTATAGAGC | 1.03 ± 0.054 |
| TGACTGTTTC | 1.01 ± 0.024 |
| TAAATGGTTT | 1.02 ± 0.023 |
| AATTTTGTTA | 0.976 ± 0.043 |
| TTGAAACTCG | 1.063 ± 0.0023 |
| ATGTACATTT | 1.068 ± 0.0059 |
| CTTGTAATTT | 1.02 ± 0.035 |
| CTGTTTATTG | 0.977 ± 0.027 |
| AGAAGGCGGC | 1 ± 0.023 |
